From patent US10487307B2, “Culture method for pluripotent stem cells” (FUJIFILM CORPORATION, priority 2013, dated 2019)

Columns and labels:
iPS cells [1] = assay: Evaluation of maintenance of undifferentiated state (reference examples); format: cell-based, human
Experimental: iPS cells collected in the same manner as in <Cell adhesiveness evaluation 1> were suspended in TeSR2. The iPS cells were seeded into 6-well plate (Tissue culture-treated, Falcon), onto which each of the samples 1, 2, 5, 6, and 7 used in <Cell adhesiveness evaluation 1> was adsorbed in the same manner as in <Cell adhesiveness evaluation 1>, and cultured in a CO2 incubator at 37° C. Except for the day after the seeding, the medium was replaced every day. In the same method as described above, the cells were subcultured every six days.
After being cultured for 1 month under the conditions described above, the cells were immobilized using 4% paraformaldehyde and treated with 1% Triton-X/PBS so as to enhance the membrane permeability. After the cells were subjected to a blocking treatment using an Image IT Signal Enhancer (Invitrogen), an anti-human NANOG antibody (AF 1997, R&D Systems, Inc.), an Alexa Fluor 555 binding rabbit anti-goat IgG antibody (Invitrogen), and DAPI (4′,6-diamidino-2-phenylindole, Dojindo Molecular Technologies, Inc.) were added thereto for labeling, and the cells were imaged using a fluorescence microscope.
FIGS. 3A and 4A show the iPS cells cultured on RCP-1; FIGS. 3B and 4B show the iPS cells cultured on RCP-11; FIGS. 3C and 4C show the iPS cells cultured on natural human vitronectin; FIGS. 3D and 4D show the iPS cells cultured on rLaminin-5; and FIGS. 3E and 4E show the iPS cells cultured on rLaminin-511. The scale bar in the images indicates […]. In FIGS. 3A to 3E, the images on the left side are full images of the colony, and the images on the right side are magnified images. In FIGS. 4A to 4E, the images on the left side are images of the cells stained with DAPI, and the images on the right side are images of the cells stained with an anti-NANOG antibody. The scale bar in FIGS. 3A to 4E indicates 200 μm.

iPS cells [2] = assay: Growth evaluation, growth curves over 8 days; format: cell-based, human
Experimental: The iPS cells collected in the same manner as in <Cell adhesiveness evaluation 1> were seeded into a 96-well plate, onto which RCP-1, RCP-21, and natural human vitronectin were adsorbed, at a ratio of 250 cells/well and cultured for 8 days in a 5% CO2 incubator at 37° C. The number of adhesive cells after different days of culture was measured in the same manner as in <Cell adhesiveness evaluation 1>, thereby obtaining growth curves. […] In FIG. 2, a black rhombus indicates a case using RCP-1, and a black square indicates a case using RCP-21.
From the increase and decrease in the obtained number of cells, the doubling time was calculated. As a result, it was confirmed that it takes 46.4±2.1 hours for the number of cells to be doubled in a case where RCP-1 is used, and 67.7±2.1 hours in a case where RCP-21 is used.

B1: RCP-1: recombinant polypeptide for culture, SEQ ID NO: 15; human vitronectin positions 1-55 and 269-459 with N-terminal methionine (protein)
chain: MDQESCKGRCTEGFNVDKKCQCDELCSYYQSCCTDYTAECKPQVTRGDVFTMPEDEPSQEECEGSSLSAVFEHFAMMQRDSWEDIFELLFWGRTSAGTRQPQFISRDWHGVPGQVDAAMAGRIYISGMAPRPSLAKKQRFRHRNRKGYRSQRGHSRGRNQNSRRPSRATWLSLFSSEESNLGANNYDDYRMDWLVPATCEPIQSVFFFSGDKYYRVNLRTRRVDTVDPPYPRSIAQYWLGCPAPGHL
modifications: Vitronectin-derived Recombinant Protein (RCP-1)
With B1 the “form of iPS cell colony” value (iPS cells [1]; TeSR2, subcultured every six days, FIGS. 3A to 3E) was “form specific to undifferentiated cells”, the “NANOG expression” value (iPS cells [1]; cultured for 1 month in TeSR2, anti-NANOG staining, FIGS. 4A to 4E) was “strongly expressed NANOG in the entirety of the colony” and the doubling time (iPS cells [2]; 250 cells/well, cultured for 8 days) was 46.4 ± 2.1 h. For the same molecule, the “cell growth properties” value (iPS cells [2]; FIG. 2) was “higher cell growth properties compared to RCP-21”.
